B1: Chorion-specific transcription factor GCMb (Homo sapiens), O75603 (parent)
chain: MPAAAVQEAVGVCSYGMQLSWDINDPQMPQELALFDQFREWPDGYVRFIYSSDEKKAQRHLSGWAMRNTNNHNGHILKKSCLGVVVCTQACTLPDGSRLQLRPAICDKARLKQQKKACPNCHSALELIPCRGHSGYPVTNFWRLDGNAIFFQAKGVHDHPRPESKSETEARRSAIKRQMASFYQPQKKRIRESEAEENQDSSGHFSNIPPLENPEDFDIVTETSFPIPGQPCPSFPKSDVYKATCDLATFQGDKMPPFQKYSSPRIYLPRPPCSYELANPGYTNSSPYPTLYKDSTSIPNDTDWVHLNTLQCNVNSYSSYERSFDFTNKQHGWKPALGKPSLVERTNHGQFQAMATRPYYNPELPCRYLTTPPPGAPALQTVITTTTKVSYQAYQPPAMKYSDSVREVKSLSSCNYAPEDTGMSVYPEPWGPPVTVTRAASPSGPPPMKIAGDCRAIRPTVAIPHEPVSSRTDEAETWDVCLSGLGSAVSYSDRVGPFFTYNNEDF
B2: Centrosomal protein POC5 (Homo sapiens), Q8NA72 (parent)
chain: MSSDEEKYSLPVVQNDSSRGSSVSSNLQEEYEELLHYAIVTPNIEPCASQSSHPKGELVPDVRISTIHDILHSQGNNSEVRETAIEVGKGCDFHISSHSKTDESSPVLSPRKPSHPVMDFFSSHLLADSSSPATNSSHTDAHEILVSDFLVSDENLQKMENVLDLWSSGLKTNIISELSKWRLNFIDWHRMEMRKEKEKHAAHLKQLCNQINELKELQKTFEISIGRKDEVISSLSHAIGKQKEKIELMRTFFHWRIGHVRARQDVYEGKLADQYYQRTLLKKVWKVWRSVVQKQWKDVVERACQARAEEVCIQISNDYEAKVAMLSGALENAKAEIQRMQHEKEHFEDSMKKAFMRGVCALNLEAMTIFQNRNDAGIDSTNNKKEEYGPGVQGKEHSAHLDPSAPPMPLPVTSPLLPSPPAAVGGASATAVPSAASMTSTRAASASSVHVPVSALGAGSAATAASEEMYVPRVVTSAQQKAGRTITARITGRCDFASKNRISSSLAIMGVSPPMSSVVVEKHHPVTVQTIPQATAAKYPRTIHPESSTSASRSLGTRSAHTQSLTSVHSIKVVD
B3: Chorion-specific transcription factor GCMb (Homo sapiens), O75603 (parent)
chain: B1 chain
partner: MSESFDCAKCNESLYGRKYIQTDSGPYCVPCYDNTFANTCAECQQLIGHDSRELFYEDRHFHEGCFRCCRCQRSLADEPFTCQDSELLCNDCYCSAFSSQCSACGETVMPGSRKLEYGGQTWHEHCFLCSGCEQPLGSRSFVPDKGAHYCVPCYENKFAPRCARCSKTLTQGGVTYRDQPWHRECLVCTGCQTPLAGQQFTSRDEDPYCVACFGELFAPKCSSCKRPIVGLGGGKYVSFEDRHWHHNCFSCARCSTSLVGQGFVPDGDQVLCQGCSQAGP
B4: Small glutamine-rich tetratricopeptide repeat-containing protein beta (Homo sapiens), Q96EQ0 (parent)
chain: MSSIKHLVYAVIRFLREQSQMDTYTSDEQESLEVAIQCLETVFKISPEDTHLAVSQPLTEMFTSSFCKNDVLPLSNSVPEDVGKADQLKDEGNNHMKEENYAAAVDCYTQAIELDPNNAVYYCNRAAAQSKLGHYTDAIKDCEKAIAIDSKYSKAYGRMGLALTALNKFEEAVTSYQKALDLDPENDSYKSNLKIAEQKLREVSSPTGTGLSFDMASLINNPAFISMAASLMQNPQVQQLMSGMMTNAIGGPAAGVGGLTDLSSLIQAGQQFAQQIQQQNPELIEQLRNHIRSRSFSSSAEEHS
partner: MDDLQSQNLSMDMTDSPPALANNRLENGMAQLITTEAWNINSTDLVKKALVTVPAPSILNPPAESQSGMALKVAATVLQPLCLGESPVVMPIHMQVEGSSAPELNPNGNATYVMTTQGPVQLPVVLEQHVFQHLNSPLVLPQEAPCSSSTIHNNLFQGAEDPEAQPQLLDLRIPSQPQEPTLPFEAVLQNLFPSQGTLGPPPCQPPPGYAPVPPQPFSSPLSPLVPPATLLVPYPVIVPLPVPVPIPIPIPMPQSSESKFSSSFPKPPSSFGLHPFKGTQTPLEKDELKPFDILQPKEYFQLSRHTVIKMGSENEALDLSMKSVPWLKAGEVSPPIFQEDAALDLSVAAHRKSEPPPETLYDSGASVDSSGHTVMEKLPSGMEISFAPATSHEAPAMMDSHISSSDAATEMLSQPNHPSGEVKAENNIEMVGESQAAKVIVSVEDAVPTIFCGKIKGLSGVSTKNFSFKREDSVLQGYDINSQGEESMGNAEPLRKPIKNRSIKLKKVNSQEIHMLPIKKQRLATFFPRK

Variants of: B1
Conditions: with crx_human CRX

Q: MPAAAVQEAVGVCSYGMQLSWDINDPQMPQELALFDQFREWPDGYVRFIYSSDEKKAQRHLSGWAMRNTNNHNGHILKKSCLGVVVCTQACTLPDGSRLQLRPAICDKARLKQQKKACPNCHSALELIPCRGHSGYPVTNFWRLDGNAIFFQAKGVHDHPRPESKSETEARRSAIKRQMASFYQPQKKRIRESEAEENQDSSGHFSNIPPLENPEDFDIVTETSFPIPGQPCPSFPKSDVYKATCDLATFQGDKMPPFQKYSSPRIYLPRPPCSYELANPGYTNSSPYPTLYKDSTSIPNDTDWVHLNTLQCNVNSYSSYERSFDFTNKQHGWKPALGKPSLVERTNHEQFQAMATRPYYNPELPCRYLTTPPPGAPALQTVITTTTKVSYQAYQPPAMKYSDSVREVKSLSSCNYAPEDTGMSVYPEPWGPPVTVTRAASPSGPPPMKIAGDCRAIRPTVAIPHEPVSSRTDEAETWDVCLSGLGSAVSYSDRVGPFFTYNNEDF [G349E] was tested. Which “effect of a mutation on the interaction” value did it give?
A: with no effect

Variants of: B1
Conditions: with rbpms_human RBPMS

Q: For MPAAAVQEAVGVCSYGMQLSWDINDPQMPQELALFDQFREWPDGYVRFIYSSDEKKAQRHLSGWAMRNTNNHNGHILKKSCLGVVVCTQACTLPDGSRLQLRPAICDKARLKQQKKACPNCHSALELIPCRGHSGYPVTNFWRLDGNAIFFQAKGVHDHPRPESKSETEARRSAIKRQMASFYQPQKKRIRESEAEENQDSSGHFSNIPPLENPEDFDIVTETSFPIPGQPCPSFPKSDVYKATCDLATFQGDKMPPFQKYSSPRIYLPRPPCSYELANPGYTNSSPYPTLYKDSTSIPNDTDWVHLNTLQCNVNSYSSYERSFDFTNKQHGWKPALGKPSLVERTNHEQFQAMATRPYYNPELPCRYLTTPPPGAPALQTVITTTTKVSYQAYQPPAMKYSDSVREVKSLSSCNYAPEDTGMSVYPEPWGPPVTVTRAASPSGPPPMKIAGDCRAIRPTVAIPHEPVSSRTDEAETWDVCLSGLGSAVSYSDRVGPFFTYNNEDF [G349E], which “effect of a mutation on the interaction” value is on record?
A: with no effect

Variants of: B2
Conditions: with cetn1_human CETN1, Q12798
Sequence of cetn1_human CETN1, Q12798 (Q12798 whole entry): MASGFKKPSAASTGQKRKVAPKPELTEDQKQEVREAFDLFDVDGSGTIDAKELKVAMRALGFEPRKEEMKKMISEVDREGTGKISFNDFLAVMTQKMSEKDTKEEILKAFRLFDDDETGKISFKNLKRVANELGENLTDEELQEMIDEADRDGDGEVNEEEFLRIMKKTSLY

Q: How did the “effect of a mutation on the interaction” value turn out when MSSDEEKYSLPVVQNDSSRGSSVSSNLQEEYEELLHYAIVTPNIEPCASQSSHPKGELVPDVRISTIHDILHSQGNNSEVRETAIEVGKGCDFHISSHSKTDESSPVLSPRKPSHPVMDFFSSHLLADSSSPATNSSHTDAHEILVSDFLVSDENLQKMENVLDLWSSGLKTNIISELSKWRLNFIDWHRMEMRKEKEKHAAHLKQLCNQINELKELQKTFEISIGRKDEVISSLSHAIGKQKEKIELMRTFFHWRIGHVRARQDVYEGKLADQYYQRTLLKKVWKVWRSVVQKQWKDVVERACQARAEEVCIQISNDYEAKVAMLSGALENAKAEIQRMQHEKEHFEDSMKKAFMRGVCALNLEAMTIFQNRNDAGIDSTNNKKEEYGPGVQGKEHSAHLDPSAPPMPLPVTSPLLPSPPAAVGGASATAVPSAASMTSTRAASASSVHVPVSALGAGSAATAASEETYVPRVVTSAQQKAGRTITARITGRCDFASKNRISSSLAIMGVSPPMSSVVVEKHHPVTVQTIPQATAAKYPRTIHPESSTSASRSLGTRSAHTQSLTSVHSIKVVD [M469T] was run?
A: with no effect

Variants of: B2
Conditions: with cetn2_human CETN2, P41208
Sequence of cetn2_human CETN2, P41208 (P41208 whole entry): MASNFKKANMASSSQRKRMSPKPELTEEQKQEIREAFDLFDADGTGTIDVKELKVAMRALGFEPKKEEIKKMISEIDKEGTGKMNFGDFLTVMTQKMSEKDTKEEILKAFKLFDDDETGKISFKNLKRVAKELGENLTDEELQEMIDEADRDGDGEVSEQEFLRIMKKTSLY

Q: With MSSDEEKYSLPVVQNDSSRGSSVSSNLQEEYEELLHYAIVTPNIEPCASQSSHPKGELVPDVRISTIHDILHSQGNNSEVRETAIEVGKGCDFHISSHSKTDESSPVLSPRKPSHPVMDFFSSHLLADSSSPATNSSHTDAHEILVSDFLVSDENLQKMENVLDLWSSGLKTNIISELSKWRLNFIDWHRMEMRKEKEKHAAHLKQLCNQINELKELQKTFEISIGRKDEVISSLSHAIGKQKEKIELMRTFFHWRIGHVRARQDVYEGKLADQYYQRTLLKKVWKVWRSVVQKQWKDVVERACQARAEEVCIQISNDYEAKVAMLSGALENAKAEIQRMQHEKEHFEDSMKKAFMRGVCALNLEAMTIFQNRNDAGIDSTNNKKEEYGPGVQGKEHSAHLDPSAPPMPLPVTSPLLPSPPAAVGGASATAVPSAASMTSTRAASASSVHVPVSALGAGSAATAASEETYVPRVVTSAQQKAGRTITARITGRCDFASKNRISSSLAIMGVSPPMSSVVVEKHHPVTVQTIPQATAAKYPRTIHPESSTSASRSLGTRSAHTQSLTSVHSIKVVD [M469T] as the variant, how does the “effect of a mutation on the interaction” value read?
A: with no effect

Variants of: B3
Conditions: with fhl3_human FHL3, Q13643

Q: MPAAAVQEAVGVCSYGMQLSWDINDPQMPQELALFDQFREWPDGYVRFIYSSDEKKAQRHLSGWAMRNTNNHNGHILKKSCLGVVVCTQACTLPDGSRLQLRPAICDKARLKQQKKACPNCHSALELIPCRGHSGYPVTNFWRLDGNAIFFQAKGVHDHPRPESKSETEARRSAIKRQMASFYQPQKKRIRESEAEENQDSSGHFSNIPPLENPEDFDIVTETSFPIPGQPCPSFPKSDVYKATCDLATFQGDKMPPFQKYSSPRIYLPRPPCSYELANPGYTNSSPYPTLYKDSTSIPNDTDWVHLNTLQCNVNSYSSYERSFDFTNKQHGWKPALGKPSLVERTNHEQFQAMATRPYYNPELPCRYLTTPPPGAPALQTVITTTTKVSYQAYQPPAMKYSDSVREVKSLSSCNYAPEDTGMSVYPEPWGPPVTVTRAASPSGPPPMKIAGDCRAIRPTVAIPHEPVSSRTDEAETWDVCLSGLGSAVSYSDRVGPFFTYNNEDF [G349E] was tested. Which “effect of a mutation on the interaction” value did it give?
A: with no effect

Variants of: B4
Conditions: with rai2_human RAI2, Q9Y5P3

Q: MSSIKHLVYAVIRFLREQSQMDTYTSDEQESLEVAIQCLETVFKISPEDTHLAVSQPLTEMFTSSFCKNDVLPLSNSVPEDVGKADQLKDEGNNHMKEENYAAAVDCYTQAIELDPNNAVYYCNRAAAQSKLGHYTDAIKDCEKAIAIDSKYSKAYGRMGLALTALNKFEEAVTSYQKALDLDPENDSYKSNLKIAEQKLREVSSPTGTGLSFDMASLINNPAFISMAASLMQNPQVQQLMSGMMTNAIGGPAAGVGGLTDLSSLIQAGQQFAQQIQQQNPELIEQLRNHIWSRSFSSSAEEHS [R292W] was tested. Which “effect of a mutation on the interaction” value did it give?
A: with no effect

Reference: IntAct's records for PubMed 29892012
